Results: article PMC11089518, “Development of Prolinol Containing Inhibitors of Hypoxanthine–Guanine–Xanthine Phosphoribosyltransferase: Rational Structure-Based Drug Design” (Journal of Medicinal Chemistry, 2024)

Key:
[1] = molecular target: the molecule itself; test: crystal structure; human HGPRT (10 mg/mL, 0.4 mM) with inhibitor 1 (0.3 M calcium acetate, 20% PEG 3350) or 5 (0.3 M sodium acetate, 17.5% PEG 3350), hanging drop; oligomer as refined in the asymmetric unit
[2] = molecular target: the molecule itself; test: crystal structure; TbrHGPRT1 (8 mg/mL, 0.3 mM) with inhibitor 4 or 5, 0.2 M MgCl2, 0.1 M Bis-Tris pH 5.0, 20% PEG 3350, hanging drop; oligomer as refined in the asymmetric unit

B1: human hypoxanthine-guanine phosphoribosyltransferase (human HGPRT) (enzyme)
chain: MATRSPGVVISDDEPGYDLDLFCIPNHYAEDLERVFIPHGLIMDRTERLARDVMKEMGGHHIVALCVLKGGYKFFADLLDYIKALNRNSDRSIPMTVDFIRLKSYCNDQSTGDIKVIGGDDLSTLTGKNVLIVEDIIDTGKTMQTLLSLVRQYNPKMVKVASLLVKRTPRSVGYKPDFVGFEIPDKFVVGYALDYNEYFRDLNHVCVISETGKAKYKA
notes: hypoxanthine-guanine phosphoribosyltransferase, human; source: expressed and purified to homogeneity as previously described
stoichiometry N [1]: 4

B2: Trypanosoma brucei hypoxanthine-guanine phosphoribosyltransferase isoform 1 (TBrHGPRT1) (enzyme, UniProt Q07010 1-210, looked up)
chain: MEPACKYDFATSVLFTEAELHTRMRGVAQRIADDYSNCNLKPLENPLVIVSVLKGSFVFTADMVRILGDFGVPTRVEFLRASSYGHDTKSCGRVDVKADGLCDIRGKHVLVLEDILDTALTLREVVDSLKKSEPASIKTLVAIDKPGGRKIPFTAEYVVADVPNVFVVGYGLDYDQSYREVRDVVILKPSVYETWGKELERRKAAGEAKR
notes: hypoxanthine-guanine phosphoribosyltransferase isoform HGPRT1 (cytoplasmic) of Trypanosoma brucei; source: expressed and purified to homogeneity as previously described
stoichiometry N [2]: 2
